{"source": "patent US5811533", "about": "“High-affinity oligonucleotide ligands to vascular endothelial growth factor (VEGF)” (NeXstar Pharmaceuticals, Inc.)", "binders": {"B1": {"name": "NX-214 (mixed)", "mixed": "TTTTACCCUGAUGGUAGACGCCGGGGUGTTTTT", "modifications": "2'-NH2/2'-OMe variant (position code lost in text); 5' and 3' phosphorothioate thymidine caps"}, "B2": {"name": "NX-178 (mixed)", "mixed": "TTTTACCCUGAUGGUAGACGCCGGGGUGTTTTT", "modifications": "2'-NH2 pyrimidines; 5' T*T*T*T* and 3' T*T*T*T*T phosphorothioate thymidine caps"}, "B3": {"name": "NX-213 (mixed)", "mixed": "TTTTACCCUGAUGGUAGACGCCGGGGUGTTTTT", "modifications": "2'-NH2 pyrimidines; all purines 2'-OMe except four; 5' and 3' phosphorothioate thymidine caps"}, "B4": {"name": "30B (ssRNA)", "RNA": "GGGAGGACGAUGCGGCAUGGUUGUGAACUGUUGUGAUCAAUGCGGGGAGGGUAAUGGUGGGUGGUCAGACGACUCGCCCGA", "modifications": "2'-NH2 pyrimidines"}, "B5": {"name": "ssDNA b65 (ssDNA)", "DNA": "CTACCTACGATCTGACTAGCCGAGGTCCCCCACTGGATAGAGTTGTTGAAACAACGGTGCGCTTAGCTTACTCTCATGTAGTTCCT"}, "B6": {"name": "ssDNA b95 (ssDNA)", "DNA": "CTACCTACGATCTGACTAGCCCACTGCATAGAGAACTGGATCGACGGTCCAAAGTTCGGTGCTTAGCTTACTCTCATGTAGTTCCT"}, "B7": {"name": "ssDNA 10 (ssDNA)", "DNA": "ATCCGCCTGATTAGCGATACTGTACCATCCACGGTTTACGTGGACAAGAGGGCCCTGGTACACTTGAGCAAAATCACCTGCAGGGG"}, "B8": {"name": "ssDNA b60 (ssDNA)", "DNA": "CTACCTACGATCTGACTAGCCCACCGCAGAGTGTTACACCCCATAGGAGAAGTCCGGATGGCTTAGCTTACTCTCATGTAGTTCCT"}, "B9": {"name": "ssDNA b80 (ssDNA)", "DNA": "CTACCTACGATCTGACTAGCCCGTCGCGTGACTATAACCACACGCAGACTAGAGTGCAGGGCTTAGCTTACTCTCATGTAGTTCCT"}, "B10": {"name": "ssDNA b59 (ssDNA)", "DNA": "CTACCTACGATCTGACTAGCAACACGAGCATGTGGGGTCCCTTCCGAATGGGGGGTACAGGCTTAGCTTACTCTCATGTAGTTCCT"}, "B11": {"name": "ssDNA 23 (ssDNA)", "DNA": "ATCCGCCTGATTAGCGATACTGGGCATCTAACCCAGACCTACCGGAACGTTATCGCTTGTGACTTGAGCAAAATCACCTGCAGGGG"}, "B12": {"name": "ssDNA 6 (ssDNA)", "DNA": "ATCCGCCTGATTAGCGATACTATACACCCGGCGGGCCTACCGGATCGTTGATTTCTCTCCACTTGAGCAAAATCACCTGCAGGGG"}, "B13": {"name": "ssDNA b85 (ssDNA)", "DNA": "CTACCTACGATCTGACTAGCGAGGAGGTGCGTTGTCCGAAGGGGTCGTTAGTCACCTCGTGCTTAGCTTACTCTCATGTAGTTCCT"}, "B14": {"name": "ssDNA b56 (ssDNA)", "DNA": "CTACCTACGATCTGACTAGCGCAGGGCCACGTCTATTTAGACTAGAGTGCAGTGGTTCGCTTACTCTCATGTAGTTCCT"}, "B15": {"name": "ssDNA b79 (ssDNA)", "DNA": "CTACCTACGATCTGACTAGCGAGGCATTAGGTCCGAATGGTAGTAATGCTGTCGTGCCTTGCTTAGCTTACTCTCATGTAGTTCCT"}, "B16": {"name": "ssDNA 33 (ssDNA)", "DNA": "ATCCGCCTGATTAGCGATACTTCAAGCACTCCCGTCTTCCAGACAAGAGTGCAGGGCCTCTACTTGAGCAAAATCACCTGCAGGGG"}, "B17": {"name": "ssDNA 1 (ssDNA)", "DNA": "ATCCGCCTGATTAGCGATACTTCTGCGAGAGACCTACTGGAACGTTTTGTGATATTCACAACTTGAGCAAAATCACCTGCAGGGG"}, "B18": {"name": "ssDNA 15 (ssDNA)", "DNA": "ATCCGCCTGATTAGCGATACTACCGCTGTGTAGTTCCTTTAGGACTAGAGGGCCGCCTACACTTGAGCAAAATCACCTGCAGGGG"}, "B19": {"name": "ssDNA b98 (ssDNA)", "DNA": "CTACCTACGATCTGACTAGCGATCCACGAAGAAGCTTACTCTCATGTAGTTCCAGCTTACTCTCATGTAGTTCCT"}, "B20": {"name": "ssDNA b66 (ssDNA)", "DNA": "CTACCTACGATCTGACTAGCAACACTTCCCCACTGGATAGAGGCCTTTCGCAGAGCCGGTGCTTAGCTTACTCTCATGTAGTTCCT"}, "B21": {"name": "ssDNA b99 (ssDNA)", "DNA": "CTACCTACGATCTGACTAGCCACGATAATCCTCCGAAAGCGTTGTCCGAATGGGTCGTTAGCTTAGCTTACTCTCATGTAGTTCCT"}, "B22": {"name": "ssDNA b88 (ssDNA)", "DNA": "CTACCTACGATCTGACTAGCGCAAGGGGTCCTGCCGAATGGGGGAATACGCTAGCCGAAAGCTTACTCTCATGTAGTTCCT"}, "B23": {"name": "ssDNA b53 (ssDNA)", "DNA": "CTACCTACGATCTGACTAGCGCAAGGGCATCTCGGAATCGGTTAATCTGACTTGCAATACGCTTAGCTTACTCTCATGTAGTTCCT"}, "B24": {"name": "17B (ssRNA)", "RNA": "GGGAGGACGAUGCGGCGCUGUGUUCAAUGCGGGGAUCGGGCCGGAGGAUGAACAAAUGGCGGGUCAGACGACUCGCCCGA", "modifications": "2'-NH2 pyrimidines"}, "B25": {"name": "ssDNA b81 (ssDNA)", "DNA": "CTACCTACGATCTGACTAGCCCGAATGGGGCTGCGACTGCAGTGGACGTCACGTCGTTAGCTTACTCTCATGTAGTTCCT"}}, "data": [{"molecular_target": "T1, VEGF165 (recombinant human vascular endothelial growth factor, 165 aa form) (Homo sapiens, UniProt P15692-4 P15692-4:27-191)", "T1 sequence (P15692 other isoform, or with tags, fused parts or gaps)": "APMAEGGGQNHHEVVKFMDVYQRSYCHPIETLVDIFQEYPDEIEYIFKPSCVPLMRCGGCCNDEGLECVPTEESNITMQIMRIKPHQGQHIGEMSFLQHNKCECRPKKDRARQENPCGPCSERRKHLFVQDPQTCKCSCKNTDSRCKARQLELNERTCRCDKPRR", "test": "inhibition; VEGF receptor binding", "conditions": "tags: gift from N. Ferrara, Genentech; chain copies: 2 (dimer, stated)", "method": "VEGF was radioiodinated by the Iodegen method (Jakeman et al. (1992) J. Clin. Invest. 89:244) to a specific activity of 2.4×10^4 cpm/ng. Human umbilical vein endothelial cells (HUVECs) were plated in 24-well plates at a density of 1–2×10^5 cells/well and grown to confluence in EGM (Clonetics, San Diego, Calif.) media (24–48 hrs). At confluence, the cells were washed 3 times with PBS and incubated for 2 hrs at 4° C. in α-MEM serum-free media containing ^125I-labeled VEGF with or without unlabeled competitor (VEGF, EGF, or RNA). For experiments done with RNA, 0.2 units of placental RNase inhibitor (Promega, Madison, Wis.) were included in the media. […] At the end of the 2 hr incubation period, the supernatant was removed and the wells washed 2 times with PBS. HUVECs were then lysed with 1% triton X-100/1M NaOH and the amount of cell-associated ^125I-VEGF determined by gamma counting.\n(§1) To this end, certain ligands were synthesized and tested for binding affinity. The binding studies were performed using the protocols described in Example 1.", "units": {"Ki": "nM"}, "values": [{"binder": "B1", "Ki": 1}, {"binder": "B2", "Ki": 1}, {"binder": "TTTTACCCUGAUGGUAGACGCCGGGGUGTTTTT (mixed, all 2'-OMe core; 5' and 3' phosphorothioate thymidine caps)", "note": "[NX-191]", "Ki": 500}, {"binder": "TTTTACCCUGAUGGUAGACGCCGGGGUGTTTTT (mixed, as NX-213 plus internal phosphorothioate between A7 and U8)", "note": "[NX-215]", "Ki": 1}, {"binder": "B3", "Ki": 1}, {"binder": "ACCCUGAUGGUAGACGCCGGGGUG (ssRNA, modified variant of NX-107 (position code lost in text))", "note": "[NX-176]", "Ki": 10}]}, {"molecular_target": "T1, VEGF165 (recombinant human vascular …)", "test": "filter; Kd1, X1 0.77, Kd2 10-100 nM", "conditions": "tags: gift from N. Ferrara, Genentech; chain copies: 2 (dimer, stated)", "units": {"Kd": "nM"}, "values": [{"binder": "B4", "Kd": 0.034}]}, {"molecular_target": "T1, VEGF165 (recombinant human vascular …)", "test": "filter", "conditions": "tags: gift from N. Ferrara, Genentech; chain copies: 2 (dimer, stated)", "method": "Internally-labeled RNA ligands used for binding studies were prepared by in vitro transcription using T7 RNA polymerase (Milligan et al. (1987) Nucl. Acids Res. 15:8783) and were purified on denaturing polyacrylamide gels to ensure size homogeneity. All RNA ligands were diluted to about 1 nM in PBS, denatured at 90° C. for 2 minutes, and then cooled on ice prior to incubation with the protein. This denaturation/renaturation cycle performed at high dilution is necessary to ensure that the RNA is essentially free from dimers and other higher order aggregates. Concentrations of the stock solutions of VEGF, from which other dilutions were made, were determined from the absorbance reading at 280 nm using the calculated value for ε280 of 46,600 M^-1cm^-1 for the VEGF dimer (Gill et al. (1989) Anal. Biochem. 182:319). Data sets that define the binding curves were fit to either eq. 2 or eq. 5 by the non-linear least squares method using the software package Kaleidagraph (Synergy Software, Reading, Pa.).\nas §1", "units": {"Kd": "nM"}, "values": [{"binder": "B1", "Kd": 0.2}, {"binder": "B2", "Kd": 0.7}, {"binder": "TTTTACCCUGAUGGUAGACGCCGGGGUGTTTTT (mixed, all 2'-OMe core; 5' and 3' phosphorothioate thymidine caps)", "note": "[NX-191]", "Kd": 120}, {"binder": "TTTTACCCUGAUGGUAGACGCCGGGGUGTTTTT (mixed, as NX-213 plus internal phosphorothioate between A7 and U8)", "note": "[NX-215]", "Kd": 0.2}, {"binder": "B3", "Kd": 0.2}, {"binder": "ACCCUGAUGGUAGACGCCGGGGUG (ssRNA, modified variant of NX-107 (position code lost in text))", "note": "[NX-176]", "Kd": 65}]}, {"molecular_target": "T1, VEGF165 (recombinant human vascular …)", "test": "filter", "conditions": "tags: gift from N. Ferrara, Genentech; chain copies: 2 (dimer, stated)", "remark": "another data set of the same source", "units": {"Kd": "nM"}, "values": [{"binder": "GTACCATCCACGGTTTACGTGGACAAGAGGGCCCTGGTAC (ssDNA)", "note": "[10t]", "Kd": 5}, {"binder": "B5", "Kd": 0.53}, {"binder": "B6", "Kd": 0.9}, {"binder": "B7", "Kd": 1}, {"binder": "B8", "Kd": 26}, {"binder": "AACACTTCCCCACTGGATAGAGGCCTTTCGCAGAGCCGGTGCTTA (ssDNA)", "note": "[66t]", "Kd": 0.35}, {"binder": "GGAGGTGCGTTGTCCGAAGGGGTCGTTAGTCACCTC (ssDNA)", "note": "[85t]", "Kd": 0.3}, {"binder": "GCAAGGGGTCCTGCCGAATGGGGGAATACGCTAGCCGAAA (ssDNA)", "note": "[88t]", "Kd": 19}, {"binder": "B9", "Kd": 8.1}, {"binder": "B10", "Kd": 91}, {"binder": "B11", "Kd": 0.75}, {"binder": "B12", "Kd": 1}, {"binder": "B13", "Kd": 0.15}, {"binder": "B14", "Kd": 0.5}, {"binder": "B15", "Kd": 2}, {"binder": "CGAGGTCCCCCACTGGATAGAGTTGTTGAAACAACGGTGCGCTTA (ssDNA)", "note": "[65t]", "Kd": 0.32}, {"binder": "B16", "Kd": 2}, {"binder": "B17", "Kd": 12}, {"binder": "GTAGTTCCTTTAGGACTAGAGGGCCGCCTAC (ssDNA)", "note": "[15t]", "Kd": 3}, {"binder": "B18", "Kd": 0.88}, {"binder": "B19", "Kd": "> 100"}, {"binder": "B20", "Kd": 1.3}, {"binder": "B21", "Kd": 34}, {"binder": "B22", "Kd": 34}, {"binder": "AGGGCCACGTCTATTTAGACTAGAGTGCAGTGGTTC (ssDNA)", "note": "[56t]", "Kd": 0.2}, {"binder": "B23", "Kd": 2.5}]}, {"molecular_target": "T1, VEGF165 (recombinant human vascular …)", "test": "FP filter; nitrocellulose filter; Kd1, X1 0.62, Kd2 ~100 nM", "conditions": "tags: gift from N. Ferrara, Genentech; chain copies: 2 (dimer, stated)", "units": {"Kd": "nM"}, "values": [{"binder": "B24", "Kd": 0.028}]}, {"molecular_target": "T1, VEGF165 (recombinant human vascular …)", "test": "filter; clone listed in families 1 and 2", "conditions": "tags: gift from N. Ferrara, Genentech; chain copies: 2 (dimer, stated)", "units": {"Kd": "nM"}, "values": [{"binder": "B25", "Kd": 0.3}]}]}
